Test results: patent US20080220446

How the values were obtained:
[1] = biological target: human modified gelatin (Gelofusine)
[2] = biological target: heat/acid-denatured human glucagon, P01275
[3] = biological target: amyloid γ-globulins (denatured human γ-globulins)
[4] = biological target: endostatin (EntreMed, Inc.), P39060
[5] = biological target: T1, β2GPI exposed to cardiolipin (CL), P02749
T1 chain: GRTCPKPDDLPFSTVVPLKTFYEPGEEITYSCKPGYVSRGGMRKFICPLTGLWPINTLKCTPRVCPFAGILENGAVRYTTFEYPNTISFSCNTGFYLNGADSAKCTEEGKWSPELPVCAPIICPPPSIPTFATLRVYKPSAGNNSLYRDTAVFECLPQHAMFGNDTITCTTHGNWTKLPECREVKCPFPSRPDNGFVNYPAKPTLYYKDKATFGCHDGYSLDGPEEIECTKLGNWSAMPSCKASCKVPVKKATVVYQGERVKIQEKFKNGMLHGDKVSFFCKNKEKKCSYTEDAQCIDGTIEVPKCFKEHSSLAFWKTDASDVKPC

[6] = biological target: T2, β2GPI purified from fresh human plasma, P02749
T2 chain: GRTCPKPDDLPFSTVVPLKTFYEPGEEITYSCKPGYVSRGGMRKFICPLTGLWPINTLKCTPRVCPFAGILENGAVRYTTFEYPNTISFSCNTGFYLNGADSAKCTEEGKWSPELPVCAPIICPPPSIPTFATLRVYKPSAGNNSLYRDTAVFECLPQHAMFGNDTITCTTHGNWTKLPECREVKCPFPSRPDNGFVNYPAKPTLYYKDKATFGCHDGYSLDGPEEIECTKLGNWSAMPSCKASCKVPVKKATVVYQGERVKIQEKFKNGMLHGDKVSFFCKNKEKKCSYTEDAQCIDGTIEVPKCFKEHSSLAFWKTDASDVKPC

[7] = biological target: T3, recombinant human β2-glycoprotein I (insect cells), P02749
T3 chain: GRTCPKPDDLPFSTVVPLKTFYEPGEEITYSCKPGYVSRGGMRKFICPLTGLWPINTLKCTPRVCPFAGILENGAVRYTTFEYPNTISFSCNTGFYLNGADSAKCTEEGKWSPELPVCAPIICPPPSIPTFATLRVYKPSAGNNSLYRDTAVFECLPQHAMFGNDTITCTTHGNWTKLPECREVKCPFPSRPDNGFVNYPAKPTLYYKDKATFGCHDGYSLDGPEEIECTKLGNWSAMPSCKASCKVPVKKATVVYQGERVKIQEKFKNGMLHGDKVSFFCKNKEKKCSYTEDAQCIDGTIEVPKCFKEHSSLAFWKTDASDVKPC

[8] = biological target: human coagulation factor VIII (FVIII) (Aafact), P00451
[9] = biological target: T4, alkyl-β2gpi (reduced and alkylated β2-glycoprotein I), P02749
T4 chain: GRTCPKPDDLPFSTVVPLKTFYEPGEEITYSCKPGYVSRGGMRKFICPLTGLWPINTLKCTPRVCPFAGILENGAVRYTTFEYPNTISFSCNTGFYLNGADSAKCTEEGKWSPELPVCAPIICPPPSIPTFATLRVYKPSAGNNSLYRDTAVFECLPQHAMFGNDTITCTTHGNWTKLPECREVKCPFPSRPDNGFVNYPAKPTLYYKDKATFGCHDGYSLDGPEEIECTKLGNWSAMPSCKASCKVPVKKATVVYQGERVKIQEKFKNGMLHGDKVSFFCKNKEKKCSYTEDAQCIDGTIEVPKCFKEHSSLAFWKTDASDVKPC

[10] = biological target: human glucagon (Glucagen), freshly dissolved, P01275
[11] = biological target: native murine serum albumin (nMSA), P07724
Chain of native murine serum albumin (nMSA), P07724 (P07724 25-608): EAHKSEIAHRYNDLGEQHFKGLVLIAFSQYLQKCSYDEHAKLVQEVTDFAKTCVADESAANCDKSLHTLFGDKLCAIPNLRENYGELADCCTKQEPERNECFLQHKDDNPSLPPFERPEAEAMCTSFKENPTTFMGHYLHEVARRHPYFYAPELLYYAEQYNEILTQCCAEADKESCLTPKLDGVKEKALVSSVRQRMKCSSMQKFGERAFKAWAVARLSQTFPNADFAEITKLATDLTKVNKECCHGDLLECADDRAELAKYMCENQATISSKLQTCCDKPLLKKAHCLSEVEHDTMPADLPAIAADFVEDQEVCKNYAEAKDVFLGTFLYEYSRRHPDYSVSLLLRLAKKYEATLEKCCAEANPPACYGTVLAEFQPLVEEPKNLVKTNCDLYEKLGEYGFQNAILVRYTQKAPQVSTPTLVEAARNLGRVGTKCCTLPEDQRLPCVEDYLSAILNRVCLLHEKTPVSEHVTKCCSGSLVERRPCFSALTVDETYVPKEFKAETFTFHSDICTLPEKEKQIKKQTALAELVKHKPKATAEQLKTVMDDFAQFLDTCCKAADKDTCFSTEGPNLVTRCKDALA

Chain of human glucagon (Glucagen), freshly dissolved, P01275 (P01275 53-81): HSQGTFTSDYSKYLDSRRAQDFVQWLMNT
Chain of endostatin (EntreMed, Inc.), P39060 (P39060 whole entry, looked up): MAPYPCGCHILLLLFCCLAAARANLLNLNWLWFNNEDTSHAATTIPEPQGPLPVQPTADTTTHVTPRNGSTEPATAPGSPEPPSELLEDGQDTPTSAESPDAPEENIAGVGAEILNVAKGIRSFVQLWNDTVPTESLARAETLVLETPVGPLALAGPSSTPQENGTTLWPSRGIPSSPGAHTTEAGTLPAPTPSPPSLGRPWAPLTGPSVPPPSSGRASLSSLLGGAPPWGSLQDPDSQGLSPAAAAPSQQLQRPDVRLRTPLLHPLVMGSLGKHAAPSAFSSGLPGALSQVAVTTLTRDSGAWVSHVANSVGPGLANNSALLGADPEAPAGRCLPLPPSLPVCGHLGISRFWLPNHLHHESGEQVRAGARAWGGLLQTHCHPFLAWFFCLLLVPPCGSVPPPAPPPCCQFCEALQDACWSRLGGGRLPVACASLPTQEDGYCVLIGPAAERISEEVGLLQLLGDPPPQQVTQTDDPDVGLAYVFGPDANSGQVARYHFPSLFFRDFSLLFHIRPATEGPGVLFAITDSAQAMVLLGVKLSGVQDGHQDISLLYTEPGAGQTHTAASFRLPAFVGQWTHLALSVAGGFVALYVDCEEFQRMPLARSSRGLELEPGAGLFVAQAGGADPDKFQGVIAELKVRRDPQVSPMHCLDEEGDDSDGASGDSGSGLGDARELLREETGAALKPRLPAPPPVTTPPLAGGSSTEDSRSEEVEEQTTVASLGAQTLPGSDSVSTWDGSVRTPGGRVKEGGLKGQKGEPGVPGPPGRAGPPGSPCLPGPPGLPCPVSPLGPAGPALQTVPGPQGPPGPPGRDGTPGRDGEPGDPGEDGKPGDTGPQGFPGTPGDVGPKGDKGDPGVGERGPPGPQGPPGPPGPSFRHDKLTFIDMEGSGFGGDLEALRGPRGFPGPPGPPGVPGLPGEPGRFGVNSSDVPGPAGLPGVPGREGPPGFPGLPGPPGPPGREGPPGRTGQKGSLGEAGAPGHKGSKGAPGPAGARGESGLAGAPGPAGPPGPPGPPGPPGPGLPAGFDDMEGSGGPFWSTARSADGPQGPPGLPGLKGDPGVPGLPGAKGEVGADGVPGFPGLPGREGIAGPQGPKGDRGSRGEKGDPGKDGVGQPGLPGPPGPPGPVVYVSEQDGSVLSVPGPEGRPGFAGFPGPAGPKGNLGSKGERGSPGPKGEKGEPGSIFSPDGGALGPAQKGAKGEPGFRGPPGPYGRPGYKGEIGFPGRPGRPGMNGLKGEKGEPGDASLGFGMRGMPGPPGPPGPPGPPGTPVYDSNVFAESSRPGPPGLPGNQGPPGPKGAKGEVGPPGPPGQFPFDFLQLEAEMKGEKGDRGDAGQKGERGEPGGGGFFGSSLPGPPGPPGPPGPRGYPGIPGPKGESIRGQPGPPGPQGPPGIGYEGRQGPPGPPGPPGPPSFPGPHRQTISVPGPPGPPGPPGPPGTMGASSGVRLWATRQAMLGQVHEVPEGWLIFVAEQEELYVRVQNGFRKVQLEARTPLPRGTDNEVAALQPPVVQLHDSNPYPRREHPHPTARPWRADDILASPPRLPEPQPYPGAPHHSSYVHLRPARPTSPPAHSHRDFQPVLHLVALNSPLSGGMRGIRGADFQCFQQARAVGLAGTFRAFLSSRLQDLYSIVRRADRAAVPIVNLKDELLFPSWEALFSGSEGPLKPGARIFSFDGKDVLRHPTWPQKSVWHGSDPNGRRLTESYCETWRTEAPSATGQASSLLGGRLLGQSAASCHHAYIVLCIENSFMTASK
Chain of human coagulation factor VIII (FVIII) (Aafact), P00451 (P00451 whole entry, looked up): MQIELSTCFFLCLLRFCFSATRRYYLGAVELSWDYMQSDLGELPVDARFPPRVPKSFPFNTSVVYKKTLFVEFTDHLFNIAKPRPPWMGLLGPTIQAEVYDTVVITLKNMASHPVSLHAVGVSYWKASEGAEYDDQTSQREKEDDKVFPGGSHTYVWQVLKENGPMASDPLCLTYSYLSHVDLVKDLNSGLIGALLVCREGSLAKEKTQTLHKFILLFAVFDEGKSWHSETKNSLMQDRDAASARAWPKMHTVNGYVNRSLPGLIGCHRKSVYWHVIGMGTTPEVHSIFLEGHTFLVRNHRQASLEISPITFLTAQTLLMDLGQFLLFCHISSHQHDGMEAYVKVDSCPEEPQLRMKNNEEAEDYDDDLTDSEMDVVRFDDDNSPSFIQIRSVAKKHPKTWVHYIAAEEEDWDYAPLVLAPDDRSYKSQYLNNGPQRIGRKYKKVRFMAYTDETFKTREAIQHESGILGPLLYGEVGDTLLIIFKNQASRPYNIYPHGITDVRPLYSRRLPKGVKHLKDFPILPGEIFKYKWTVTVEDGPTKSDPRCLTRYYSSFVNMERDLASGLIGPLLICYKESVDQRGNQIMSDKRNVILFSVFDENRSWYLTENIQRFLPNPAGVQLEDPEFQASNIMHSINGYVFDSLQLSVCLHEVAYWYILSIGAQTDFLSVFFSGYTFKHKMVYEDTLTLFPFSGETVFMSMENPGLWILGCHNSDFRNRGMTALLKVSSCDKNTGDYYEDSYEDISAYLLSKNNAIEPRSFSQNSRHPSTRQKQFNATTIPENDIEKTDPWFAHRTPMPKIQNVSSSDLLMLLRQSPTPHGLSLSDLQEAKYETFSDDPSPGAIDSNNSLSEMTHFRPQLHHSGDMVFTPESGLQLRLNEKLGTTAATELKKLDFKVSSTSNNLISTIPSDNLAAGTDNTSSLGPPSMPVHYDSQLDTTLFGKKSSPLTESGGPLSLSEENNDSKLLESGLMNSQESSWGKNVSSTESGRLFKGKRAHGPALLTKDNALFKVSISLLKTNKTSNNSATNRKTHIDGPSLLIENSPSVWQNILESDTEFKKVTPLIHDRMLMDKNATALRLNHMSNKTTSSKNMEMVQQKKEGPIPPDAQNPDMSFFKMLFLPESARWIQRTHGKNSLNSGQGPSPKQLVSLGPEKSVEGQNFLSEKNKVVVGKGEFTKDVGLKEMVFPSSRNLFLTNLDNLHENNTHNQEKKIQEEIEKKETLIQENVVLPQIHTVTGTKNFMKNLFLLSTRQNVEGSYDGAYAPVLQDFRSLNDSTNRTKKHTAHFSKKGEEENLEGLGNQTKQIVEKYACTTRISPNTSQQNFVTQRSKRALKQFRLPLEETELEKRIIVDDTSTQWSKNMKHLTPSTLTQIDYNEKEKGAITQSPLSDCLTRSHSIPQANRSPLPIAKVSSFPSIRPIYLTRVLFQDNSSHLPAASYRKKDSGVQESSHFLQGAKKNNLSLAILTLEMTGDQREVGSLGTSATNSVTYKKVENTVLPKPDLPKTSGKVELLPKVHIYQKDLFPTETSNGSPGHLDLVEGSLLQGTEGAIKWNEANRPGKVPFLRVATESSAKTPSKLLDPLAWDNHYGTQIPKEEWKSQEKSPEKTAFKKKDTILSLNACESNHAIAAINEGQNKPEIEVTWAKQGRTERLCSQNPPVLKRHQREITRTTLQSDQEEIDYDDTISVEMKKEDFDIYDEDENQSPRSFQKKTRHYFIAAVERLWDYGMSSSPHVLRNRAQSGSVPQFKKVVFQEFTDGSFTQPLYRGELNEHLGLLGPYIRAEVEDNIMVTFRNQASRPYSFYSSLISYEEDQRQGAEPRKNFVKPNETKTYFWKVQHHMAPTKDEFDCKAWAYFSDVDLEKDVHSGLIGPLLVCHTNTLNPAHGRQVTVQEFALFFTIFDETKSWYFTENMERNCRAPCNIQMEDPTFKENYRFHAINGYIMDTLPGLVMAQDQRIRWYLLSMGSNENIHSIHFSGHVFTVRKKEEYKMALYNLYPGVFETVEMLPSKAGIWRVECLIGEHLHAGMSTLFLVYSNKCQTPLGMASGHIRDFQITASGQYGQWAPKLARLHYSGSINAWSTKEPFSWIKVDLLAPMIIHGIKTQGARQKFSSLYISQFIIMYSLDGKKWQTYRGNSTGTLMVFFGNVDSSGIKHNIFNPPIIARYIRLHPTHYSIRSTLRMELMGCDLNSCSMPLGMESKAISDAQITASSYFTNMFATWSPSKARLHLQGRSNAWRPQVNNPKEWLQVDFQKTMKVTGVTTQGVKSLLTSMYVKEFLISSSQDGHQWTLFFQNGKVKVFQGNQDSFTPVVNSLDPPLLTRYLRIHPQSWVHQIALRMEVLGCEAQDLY

| Protein | factor XII activation (chromogenic kallikrein assay) [1] | tPA activation [2] | tPA-mediated activation of Plg (chromogenic Plg-activation assay) [3] | tPA activating properties (Plg-activation assay) [4] | generation of plasmin from tPA/plasminogen [5] | tPA-mediated conversion of Plg to Pls (substrate S-2251) [6] | tPA-mediated conversion of Plg to Pls (substrate S-2251) [7] | tPA activation, Max. Activation (%) (tPA-dependent plasminogen activation, % of standardized positive control) [8] | ability to activate tPA/plasminogen [9] | tPA activating potential [10] | tPA activation, Max. Activation (%) (tPA-dependent plasminogen activation, % of standardized positive control) [10] | stimulation of tPA activation [11] |
| --- | --- | --- | --- | --- | --- | --- | --- | --- | --- | --- | --- | --- |
| factor XII (purified human factor XII from plasma) (protein) IPPWEAPKEHKYKAEEHTVVLTVTGEPCHFPFQYHRQLYHKCTHKGRPGPQPWCATTPNFDQDQRWGYCLEPKKVKDHCSKHSPCQKGGTCVNMPSGPHCLCPQHLTGNHCQKEKCFEPQLLRFFHKNEIWYRTEQAAVARCQCKGPDAHCQRLASQACRTNPCLHGGRCLEVEGHRLCHCPVGYTGAFCDVDTKASCYDGRGLSYRGLARTTLSGAPCQPWASEATYRNVTAEQARNWGLGGHAFCRNPDNDIRPWCFVLNRDRLSWEYCDLAQCQTPTQAAPPTPVSPRLHVPLMPAQPAPPKPQPTTRTPPQSQTPGALPAKREQPPSLTRNGPLSCGQRLRKSLSSMTRVVGGLVALRGAHPYIAALYWGHSFCAGSLIAPCWVLTAAHCLQDRPAPEDLTVVLGQERRNHSCEPCQTLAVRSYRLHEAFSPVSYQHDLALLRLQEDADGSCALLSPYVQPVCLPSGAARPSETTLCQVAGWGHQFEGAEEYASFLQEAQVPFLSLERCSAPDVHGSSILPGMLCAGFLEGGTDACQGDSGGPLVCEDQAAERRLTLQGIISWGSGCGDRNKPGVYTDVAYYLAWIREHTVS | Only gelatin kept at 37 °C activated factor XII | – | – | – | – | – | – | – | – | – | – | – |
| tissue-type plasminogen activator (tPA) (protein) SYQVICRDEKTQMIYQQHQSWLRPVLRSNRVEYCWCNSGRAQCHSVPVKSCSEPRCFNGGTCQQALYFSDFVCQCPEGFAGKCCEIDTRATCYEDQGISYRGTWSTAESGAECTNWNSSALAQKPYSGRRPDAIRLGLGNHNYCRNPDRDSKPWCYVFKAGKYSSEFCSTPACSEGNSDCYFGNGSAYRGTHSLTESGASCLPWNSMILIGKVYTAQNPSAQALGLGKHNYCRNPDGDAKPWCHVLKNRRLTWEYCDVPSCSTCGLRQYSQPQFRIKGGLFADIASHPWQAAIFAKHRRSPGERFLCGGILISSCWILSAAHCFQERFPPHHLTVILGRTYRVVPGEEEQKFEVEKYIVHKEFDDDTYDNDIALLQLKSDSSRCAQESSVVRTVCLPPADLQLPDWTECELSGYGKHEALSPFYSERLKEAHVRLYPSSRCTSQHLLNRTVTDNMLCAGDTRSGGPQANLHDACQGDSGGPLVCLNDGRMTLVGIISWGLGCGQKDVPGVYTKVTNYLDWIRDNMRP | – | a potent activator of tPA was obtained | Centrifugation had no effect on the stimulatory effect of Hb-AGE and amyloid γ-globulins on tPA-mediated activation of Plg | the absence of tPA activating properties in 100 µg ml^-1 endostatin | Generation of plasmin from tPA/plasminogen is accelerated when β2gpi is exposed to cardiolipin (CL-β2gpi) | Recombinant β2GPI, but not β2GPI purified from fresh plasma stimulate tPA-mediated conversion of Plg to Pls | Recombinant β2GPI, but not β2GPI purified from fresh plasma stimulate tPA-mediated conversion of Plg to Pls | 4.22 | Alkylation of β2gpi results in amyloid-like properties when the ability to activate tPA/plasminogen is considered | at high glucagon concentration, also native glucagon had some tPA activating potential | 11.2 | also native MSA enhanced ThT fluorescence to some extent, but this was not reflected by stimulation of tPA activation |
